For the data set, the system named is MS2 coat protein. Nature of the data set: apparent KD of MS2 coat protein; designed switch direction (-1 OFF switch, 1 ON switch): -1; higher = weaker reporter binding. The procedure, abridged:
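Normalised cluster fluorescence was curve-fitted, and each design's median over clusters is its apparent KD. Before this, SNAP-549-labelled MS2 coat protein was titrated from 0.7 or 1.5 nM, doubling to 3 µM, over RNA switches transcribed on Illumina chips by stalled E. coli RNA polymerase. Titrations had no input, 200 uM small-molecule ligand, or an oligonucleotide input, and steps lasted 0.8–1.5 h (lowest) to 10–20 min (highest).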

Setting [1] is: input ligand: microRNA oligo, concentration not stated.
Setting [2] is: Eterna round: R95, input ligand: FMN 200 uM.
Where [3] appears, read: Eterna round: R95, input ligand: microRNA oligo, concentration not stated.
The mark [4] stands for this setting: Eterna round: R95, input ligand: none.

Take “CGGUGCUUCUGGAAACAUGAGGAUCACCCAUGUUGAGUUAGCGAGGAUAUCGGUAACACAUGUCACGAGAAGGCGCGAACCAGA [Ex NG3 #34] (Eterna round: R96, puzzle: Exclusion NG 3)”: the “apparent KD of MS2 coat protein” value (input ligand: FMN 200 uM) turned out to be 10.4 nM, the “apparent KD of MS2 coat protein” value under setting [1] was determined as 13 nM and the “apparent KD of MS2 coat protein” value (input ligand: none) is 16.7 nM.
As to “CGGUGUAGAGGAUAUACGUGAAGAUAAGAAAAUAAUAAUUAACAUGAGGAUCACCCAUGUAGAAGGCUAUAGCG [JR_Ex2_Sub082] (Eterna round: R97, puzzle: Exclusion 2)”, the “apparent KD of MS2 coat protein” value was found to be 66.3 nM (input ligand: FMN 200 uM) and 24.9 nM (input ligand: none).
With “CGUAAGCUAGGAUAUGCUUUGGGAAAGCAUUCCUUCGAUAAACUUGAGGAUCACCCAAGUAGAAGGAGCUUACC [salish99_ex2_r4_009] (Eterna round: R97, puzzle: Exclusion 2)”, the “apparent KD of MS2 coat protein” value came to 11.7 nM (input ligand: FMN 200 uM) and 11.5 nM (input ligand: none).
With “CGUAAGCUAGGAUAUGCUUUGGGAAAGCAUUCCUUCGAUAAACUUGAGGAUCACCCAAGUAGAAGGAGCUUACU [salish99_ex2_r4_011] (Eterna round: R97, puzzle: Exclusion 2)”, the “apparent KD of MS2 coat protein” value reads like this: (input ligand: FMN 200 uM) 19.5 nM; (input ligand: none) 12.5 nM.
For “CGUAAGGUAGGAUAUACAUGAGGAUCACCCAUGUCCCACCCGUUACCUAUGACCAUAUGUAGAAGGACCAAUGC [Exy#10] (Eterna round: R97, puzzle: Exclusion 3)”, in that order: 20.7 nM and 22.7 nM.
“CGUACUGAAGUGAGGAUAUUGUCUCGGAUACGAAACAAGAAGGCACAUGAGGAUCACCCAUGUUAACAGUACGA [Malc #30 mod 9] (puzzle: Brourd's mod of Exclusion 4)”: the “apparent KD of MS2 coat protein” value came to 15.2 nM under setting [2], 19.2 nM under setting [3] and 14.5 nM under setting [4].
Regarding “CGUCAGUGAGGAUAUGGUAACGUUUACAUGAGGAUCACCCAUGUUUCAUGGGACUAGAGACUAGAAGGUACUGACG [EX5 #42] (Eterna round: R97, puzzle: Exclusion 5)”, the “apparent KD of MS2 coat protein” value by setting is: (input ligand: FMN 200 uM) 189 nM; (input ligand: none) 132 nM.
On to “CGUCUGUAAGGAUAUGGUAGCAUCAACAUGAGGAUCACCCAUGUUACAUGGGACUAGUGAUUAGAAGGUACGAACG [EX5 #56] (Eterna round: R97, puzzle: Exclusion 5)”, for which the “apparent KD of MS2 coat protein” value came to 58.5 nM (input ligand: FMN 200 uM) and 80.6 nM (input ligand: none).
Consider “CGUCUGUAAGGAUAUGGUUACAUCGACAUGAGGAUCACCCAUGUGACGUGGGACUAGUGAUUAGAAGGUACGAACG [EX5 #65] (Eterna round: R97, puzzle: Exclusion 5)”, for which the “apparent KD of MS2 coat protein” value is 55.2 nM (input ligand: FMN 200 uM) and 59.4 nM (input ligand: none).
In the case of “CGUCUGUAAGGAUAUGGUUGCAUCGACAUGAGGAUCACCCAUGUAACGUGGGACUAGUGAUUAGAAGGUACGAACG [EX5 #61] (Eterna round: R97, puzzle: Exclusion 5)”, the “apparent KD of MS2 coat protein” value is, setting by setting: (input ligand: FMN 200 uM) 110 nM; (input ligand: none) 133 nM.
In the case of “CGUGACUCAGGAUAUCUAUAAUAUCACAUGAGGAUCACCCAUGUCCAGCGAAAGCUGGAGGGAGAAGGGAGUCACG [Fiskers Ex 5 - 35] (puzzle: Exclusion 5)”, the “apparent KD of MS2 coat protein” value reads like this: under setting [2], 32.8 nM; under setting [3], 164 nM; under setting [4], 146 nM.
“CGUGACUCAGGAUAUUCAUAAUAUCACAUGAGGAUCACCCAUGUCCAGCGAAAGCUGGAGGGAGAAGGGAGUCACG [Fiskers Ex 5 - 37] (puzzle: Exclusion 5)”: the “apparent KD of MS2 coat protein” value reads like this: under setting [2], 56.7 nM; under setting [3], 151 nM; under setting [4], 99.6 nM.
Regarding “CGUGACUGAGGAUAUCUAUAAUAUCACAUGAGGAUCACCCAUGUCCAGCGAAAGCUGGAAGGAGAAGGCAGUCACG [Fiskers Ex 5 - 34] (puzzle: Exclusion 5)”, the “apparent KD of MS2 coat protein” value runs as follows: under setting [2], 39.3 nM; under setting [3], 21.4 nM; under setting [4], 25.1 nM.
“CGUGAGCGCGUCAGGAUAUGGCGGCGGCGGCGGCGCCAGAAGGGACAUGAGGAUCACCCAUGUUGCGUGCGUGG [Prefect Broudrd's mod of Exclusion] (Eterna round: R97, puzzle: Brourd's mod of Exclusion 4)”: the “apparent KD of MS2 coat protein” value by setting is: (input ligand: FMN 200 uM) 73 nM; (input ligand: none) 39.3 nM.
As to “CGUGGACAUAACAAGCUUUACAUGAGGAUCACCCAUGUGAUCAUGCUCGUCUUAUGGUCCACGAAUUAAUUAAUUAG [Stov1/6-C2] (Eterna round: R97, puzzle: Sensor, turn-off variant 1)”, the “apparent KD of MS2 coat protein” value came out at 19.2 nM (input ligand: FMN 200 uM) and 18.3 nM (input ligand: none).
For “CGUGUCUUUCACGUGAGUGGUGGGUGCAACAGGUGGGAAACAUGAGGAUCACCCAUGUCCUCACUUGCUCGUCUUUU [Grok-var2-03] (puzzle: Sensor v3, turn-off variant 2)”, the “apparent KD of MS2 coat protein” value was found to be 27.1 nM under setting [2], 109 nM under setting [3] and 26.1 nM under setting [4].
Consider “CGUGUCUUUCACGUGAGUGGUGGGUGCAACAGGUGGGUUACAUGAGGAUCACCCAUGUCCUCACUUGCUCGUCUUUU [Grok-var2-04] (puzzle: Sensor v3, turn-off variant 2)”, for which the “apparent KD of MS2 coat protein” value stood at 36.1 nM under setting [2], 109 nM under setting [3] and 37.2 nM under setting [4].
As for “CGUGUGUGAGGAUAUGACAAUGGUAUCUUCGGAUACCAUUGUCAGAAGGUACAUGAGGAUCACCCAUGUAGAUC [Exclusion 4 - Mod Brourd Ex 4-3: 20 v.2] (Eterna round: R96, puzzle: Exclusion 4)”, the “apparent KD of MS2 coat protein” value reads like this: (input ligand: FMN 200 uM) 115 nM; under setting [1], 41.4 nM; (input ligand: none) 59.8 nM.
Regarding “CGUGUGUGAGGAUAUGACAAUGGUAUCUUCGGAUACCAUUGUCAGAAGGUACAUGAGGAUCACCCAUGUAGAUC [Exclusion 4 - Mod Brourd Ex 4-3: 20 v.2] (puzzle: Exclusion 4)”, under setting [3], the “apparent KD of MS2 coat protein” value worked out at 35.6 nM.
On to “CGUUCCACAGGAUAUACAAAACGUAUCCCAGGGCUAACAGGACAUGAGGAUCACCCAUGUAGAAGGGUGGAACU [Eternabot (L1) Solution 36] (Eterna round: R97, puzzle: Exclusion 2)”, for which the “apparent KD of MS2 coat protein” value amounted to 571 nM (input ligand: FMN 200 uM) and 674 nM (input ligand: none).
Regarding “CGUUCGCGAGGAUAUGCAUUCGAGUCCACUACGUGUCUGGGACUUGAGGAUCACCCAAGUAGAAGGCGCCUCAC [salish99_ex2_r4_648] (Eterna round: R97, puzzle: Exclusion 2)”, the “apparent KD of MS2 coat protein” value (input ligand: FMN 200 uM) turned out to be 83.9 nM and the “apparent KD of MS2 coat protein” value (input ligand: none) came out at 135 nM.
With “CGUUCUCACGUCAGGAUAUAGGACUUGCACGUGUGCUAGAAGGGACAUGAGGAUCACCCAUGUAAAUAAGAAAG [Quonbi] (Eterna round: R97, puzzle: Brourd's mod of Exclusion 4)”, the “apparent KD of MS2 coat protein” value was determined as 37.5 nM (input ligand: FMN 200 uM) and 27.1 nM (input ligand: none).
In the case of “CGUUCUCGAGUCAGGAUAUCGACUAAUUCCCAAGUCGAGAAGGGACAUGAGGAUCACCCAUGUAAAGAAAAGAA [Ainteedle] (puzzle: Brourd's mod of Exclusion 4)”, the “apparent KD of MS2 coat protein” value runs as follows: under setting [2], 118 nM; under setting [3], 30.1 nM; under setting [4], 30.3 nM.

For the origin of these results see the supplement of paper PMC9170038.
